Results: patent US20170158747A1

How the values were obtained:
Experiment in all cases: cell-based or functional assay
[1] = biological target: mouse IL10 receptor on mouse cells (whole blood, colon) (mouse) (UniProt Q61727)
[2] = biological target: cynomolgus monkey IL10 receptor on cynomolgus whole blood cells (cynomolgus monkey)
[3] = biological target: human IL10 receptor (IL10R1/R2 receptor complex) on human whole blood cells (human) (UniProt Q13651)
Chain of human IL10 receptor (IL10R1/R2 receptor complex) on human whole blood cells (human) (Q13651 22-578, chain 1 of 2): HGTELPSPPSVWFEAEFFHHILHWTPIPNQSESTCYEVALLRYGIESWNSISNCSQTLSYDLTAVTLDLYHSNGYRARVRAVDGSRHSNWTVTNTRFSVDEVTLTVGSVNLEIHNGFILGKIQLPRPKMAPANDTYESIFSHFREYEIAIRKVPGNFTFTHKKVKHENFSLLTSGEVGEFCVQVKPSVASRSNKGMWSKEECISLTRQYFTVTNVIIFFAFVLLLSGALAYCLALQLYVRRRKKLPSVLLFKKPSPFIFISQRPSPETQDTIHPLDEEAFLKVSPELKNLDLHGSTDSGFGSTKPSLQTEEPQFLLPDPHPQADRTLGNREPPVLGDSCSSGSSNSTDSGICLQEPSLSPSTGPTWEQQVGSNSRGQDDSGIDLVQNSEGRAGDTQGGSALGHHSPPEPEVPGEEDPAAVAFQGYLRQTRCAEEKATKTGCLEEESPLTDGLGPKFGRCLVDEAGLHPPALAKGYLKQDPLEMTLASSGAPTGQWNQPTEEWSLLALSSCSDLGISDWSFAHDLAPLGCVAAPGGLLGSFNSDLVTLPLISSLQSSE
Chain of human IL10 receptor (IL10R1/R2 receptor complex) on human whole blood cells (human) (Q08334 20-325, chain 2 of 2, further chain): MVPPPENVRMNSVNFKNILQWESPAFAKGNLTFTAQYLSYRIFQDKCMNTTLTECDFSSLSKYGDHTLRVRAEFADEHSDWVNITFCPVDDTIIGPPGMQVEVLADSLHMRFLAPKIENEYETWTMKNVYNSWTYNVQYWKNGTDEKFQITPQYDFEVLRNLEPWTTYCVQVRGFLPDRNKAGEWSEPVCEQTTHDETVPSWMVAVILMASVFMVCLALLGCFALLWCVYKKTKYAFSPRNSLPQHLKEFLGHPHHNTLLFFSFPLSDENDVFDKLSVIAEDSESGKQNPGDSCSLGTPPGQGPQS

Chain of mouse IL10 receptor on mouse cells (whole blood, colon) (mouse) (Q61727 17-575, chain 1 of 2): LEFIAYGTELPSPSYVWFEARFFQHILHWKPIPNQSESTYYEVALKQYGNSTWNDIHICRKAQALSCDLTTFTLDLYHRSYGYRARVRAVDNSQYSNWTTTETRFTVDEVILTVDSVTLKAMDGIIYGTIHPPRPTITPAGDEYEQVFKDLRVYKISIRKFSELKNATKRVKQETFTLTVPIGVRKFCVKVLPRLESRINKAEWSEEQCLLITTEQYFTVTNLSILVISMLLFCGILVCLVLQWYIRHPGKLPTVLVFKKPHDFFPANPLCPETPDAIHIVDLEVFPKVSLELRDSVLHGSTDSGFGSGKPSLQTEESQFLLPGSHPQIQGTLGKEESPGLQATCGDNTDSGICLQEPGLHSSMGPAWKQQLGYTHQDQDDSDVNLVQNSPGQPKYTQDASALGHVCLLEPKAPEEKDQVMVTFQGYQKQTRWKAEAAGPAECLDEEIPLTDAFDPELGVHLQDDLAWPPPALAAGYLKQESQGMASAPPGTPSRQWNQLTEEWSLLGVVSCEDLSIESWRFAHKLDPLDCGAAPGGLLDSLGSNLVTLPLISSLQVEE
Chain of mouse IL10 receptor on mouse cells (whole blood, colon) (mouse) (Q61190 20-349, chain 2 of 2, further chain): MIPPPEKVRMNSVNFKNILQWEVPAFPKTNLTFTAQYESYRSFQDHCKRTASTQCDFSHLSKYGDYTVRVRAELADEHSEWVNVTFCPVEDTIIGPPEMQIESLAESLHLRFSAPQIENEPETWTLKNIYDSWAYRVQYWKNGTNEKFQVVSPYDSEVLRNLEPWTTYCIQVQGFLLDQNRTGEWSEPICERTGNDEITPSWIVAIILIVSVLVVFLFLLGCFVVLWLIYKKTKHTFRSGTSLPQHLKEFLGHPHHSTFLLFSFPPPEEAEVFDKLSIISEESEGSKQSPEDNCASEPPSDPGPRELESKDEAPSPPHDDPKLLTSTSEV

recombinant human IL10 (from UniProt P22301 19-178) (ligand)
IC30, inhibition of LPS-induced TNFα production, ex vivo mouse whole blood [1]: 0.57 pM
IC50, inhibition of LPS-induced TNFα production, ex vivo mouse whole blood [1]: 1.7 pM
IC90, inhibition of LPS-induced TNFα production, ex vivo mouse whole blood [1]: 15 pM
IC30, inhibition of LPS-induced TNFα production, ex vivo cynomolgus whole blood [2]: 0.44 pM
IC50, inhibition of LPS-induced TNFα production, ex vivo cynomolgus whole blood [2]: 0.65 pM
IC90, inhibition of LPS-induced TNFα production, ex vivo cynomolgus whole blood [2]: 1.9 pM
IC30, inhibition of LPS-induced TNFα production, ex vivo human whole blood [3]: 1.3 pM
IC50, inhibition of LPS-induced TNFα production, ex vivo human whole blood [3]: 2.8 pM
IC90, inhibition of LPS-induced TNFα production, ex vivo human whole blood [3]: 22.8 pM
